Results on two molecules are retold here after publication PMC3424314 (Journal of immunology (Baltimore, Md. : 1950), 2012).

For the experiment, the target named is CD40 receptor on a stable CHO cell line (Homo sapiens, UniProt P25942). The experiment is described as follows: flow cytometry on cells. Background: Flow cytometry measures light scatter and fluorescence of single cells or particles in a stream.
CD40 receptor on a stable CHO cell line, sequence (P25942 21-277): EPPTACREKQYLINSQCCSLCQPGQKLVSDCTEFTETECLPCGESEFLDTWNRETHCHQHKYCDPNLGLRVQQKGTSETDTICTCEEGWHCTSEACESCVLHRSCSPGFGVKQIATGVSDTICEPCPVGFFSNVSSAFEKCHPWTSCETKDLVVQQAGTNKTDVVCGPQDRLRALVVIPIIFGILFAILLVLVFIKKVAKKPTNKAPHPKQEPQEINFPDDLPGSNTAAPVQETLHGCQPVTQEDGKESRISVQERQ

B1: anti-CD40 rAb with H chain C-terminal dockerin (antibody, V domains shown)
VH: EVKLVESGGGLVQPGGSLKLSCATSGFTFSDYYMYWVRQTPEKRLEWVAYINSGGGSTYYPDTVKGRFTISRDNAKNTLYLQMSRLKSEDTAMYYCARRGLPFHAMDYWGQGTSVTVSS
VL: DIQMTQTTSSLSASLGDRVTISCSASQGISNYLNWYQQKPDGTVKLLIYYTSILHSGVPSRFSGSGSGTDYSLTIGNLEPEDIATYYCQQFNKLPPTFGGGTKLEIK
In the case of B1, the binding result is listed as “binds”.

B2: recombinant anti-CD40 rAb (antibody, V domains shown)
VH: B1 VH
VL: B1 VL
Take B2: the binding result is on record as “binds”.
